The assay has as its target radial spoke protein 9 (RSP9) (C. reinhardtii). Briefly: cryo-EM structure.

Consider “radial spoke protein 9 (RSP9) (natural protein)”, for which the stoichiometry N (commonly the number of molecules, sites or subunits per partner or assembly) was found to be 2.

For the origin of these results see PMC7855469.
